From US20090202562A1 (Biogen, published 2009)

T1: murine GFRalpha3 (murine, UniProt O35118 29-371)
T1 construct: also called murine GFRalpha3 on NB41A3-L3 cells
T1 sequence: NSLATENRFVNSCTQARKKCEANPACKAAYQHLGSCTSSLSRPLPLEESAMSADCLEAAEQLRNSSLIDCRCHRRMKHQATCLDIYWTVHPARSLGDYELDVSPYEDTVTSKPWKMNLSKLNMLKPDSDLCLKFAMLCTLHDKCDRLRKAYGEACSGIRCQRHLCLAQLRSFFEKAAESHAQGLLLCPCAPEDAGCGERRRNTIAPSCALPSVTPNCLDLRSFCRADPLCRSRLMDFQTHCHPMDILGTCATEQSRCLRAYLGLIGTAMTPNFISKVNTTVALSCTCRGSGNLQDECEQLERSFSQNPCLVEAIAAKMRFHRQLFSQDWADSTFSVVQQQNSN

T2: rat GFRalpha2 (rat, UniProt O35977 22-444)
T2 construct: whole, on cells; Expressed on transiently transfected HEK 293 EBNA cells
T2 sequence: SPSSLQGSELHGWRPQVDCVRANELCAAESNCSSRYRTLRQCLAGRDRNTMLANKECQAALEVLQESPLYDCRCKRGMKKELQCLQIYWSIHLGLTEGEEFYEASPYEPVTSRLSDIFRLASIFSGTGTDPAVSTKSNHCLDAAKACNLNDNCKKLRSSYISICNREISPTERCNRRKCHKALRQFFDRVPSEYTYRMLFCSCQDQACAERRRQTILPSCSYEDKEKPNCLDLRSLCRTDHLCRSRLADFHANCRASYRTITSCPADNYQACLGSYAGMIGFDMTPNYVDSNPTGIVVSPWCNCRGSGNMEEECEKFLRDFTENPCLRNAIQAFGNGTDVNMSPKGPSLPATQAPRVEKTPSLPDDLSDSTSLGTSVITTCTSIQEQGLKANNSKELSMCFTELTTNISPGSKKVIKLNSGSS

T3: rat GFRalpha1 (rat, UniProt Q62997 25-430)
T3 construct: whole, on cells; Expressed on transiently transfected HEK 293 EBNA cells
T3 sequence (looked up): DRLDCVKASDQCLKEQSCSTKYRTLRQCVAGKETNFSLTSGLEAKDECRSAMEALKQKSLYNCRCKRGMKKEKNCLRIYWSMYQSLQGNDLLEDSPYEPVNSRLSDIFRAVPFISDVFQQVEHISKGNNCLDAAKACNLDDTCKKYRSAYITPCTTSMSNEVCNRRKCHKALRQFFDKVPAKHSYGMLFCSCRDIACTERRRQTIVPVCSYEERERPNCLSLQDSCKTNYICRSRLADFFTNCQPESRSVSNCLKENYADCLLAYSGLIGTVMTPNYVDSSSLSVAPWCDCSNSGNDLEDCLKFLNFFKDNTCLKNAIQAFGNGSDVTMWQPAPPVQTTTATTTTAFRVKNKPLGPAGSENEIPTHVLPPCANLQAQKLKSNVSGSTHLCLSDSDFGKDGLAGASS

T4: rat GFRalpha3 (rat, UniProt O35118 29-370 (mouse entry))
T4 construct: Expressed on transiently transfected HEK 293 EBNA cells; also called RetL3
T4 chain: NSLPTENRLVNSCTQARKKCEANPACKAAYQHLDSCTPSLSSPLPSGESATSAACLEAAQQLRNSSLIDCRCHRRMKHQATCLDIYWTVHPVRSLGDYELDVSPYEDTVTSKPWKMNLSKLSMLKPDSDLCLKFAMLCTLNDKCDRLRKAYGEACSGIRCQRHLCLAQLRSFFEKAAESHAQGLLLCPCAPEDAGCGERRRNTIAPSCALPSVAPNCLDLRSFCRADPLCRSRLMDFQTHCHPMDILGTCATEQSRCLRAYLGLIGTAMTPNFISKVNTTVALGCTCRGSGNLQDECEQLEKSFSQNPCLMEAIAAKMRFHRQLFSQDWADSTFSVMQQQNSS

B1: rat Neublastin (113 amino acid form) (ligand)
chain: AGTRSSRARATDARGCRLRSQLVPVSALGLGHSSDELIRFRFCSGSCRRARSPHDLSLASLLDAGALRSPPGSRPISQPCCRPTRYEAVSFMDVNSTWRTVDHLSATACGCLG
B2: Fab fragment MOR02683 (Fab, V domains shown)
VH: QVQLVESGGGLVQPGGSLRLSCAASGFTFSNYTMHWVRQAPGKGLEWVSVISYDGSSTYYADSVKGRFTISRDNSKNTLYLQMNSLRAEDTAVYYCARIVRMDIWGQGTLVTVSS
VL: DIVLTQSPATLSLSPGERATLSCRASQSVNSHYLAWYQQKPGQAPRLLIYGASNRATGVPARFSGSGSGTDFTLTISSLEPEDFATYYCQQMDGFPFTFGQGTKVEIKR
notes: From the HuCAL GOLD Fab phage display library; also called anti-GFRalpha3 Fab fragment MOR02683

Key:
[1] = target: T1, murine GFRalpha3; assay: Neublastin competition binding on NB41A3-L3 cells (murine GFRalpha3 plus endogenous murine Ret): 0-10 uM rat Neublastin for 10 min at 4 C, unoccupied GFRalpha3 probed with 10 ug/ml biotinylated MOR02683, FACS with PE-Streptavidin, hyperbolic fit
Experimental: NB41A3-L3 cells were incubated with different concentrations of rat Neublastin for 10 minutes at 4° C. During the incubation period, the binding reaction of Neublastin to GFRalpha3 and Ret on the cell surface reaches equilibrium. Cells were then quenched with a high concentration (10 ug/ml) of biotinylated MOR02683 for 2 minutes. MOR02683 can only bind to GFRalpha3 receptors that are not already occupied by Neublastin and thus acts as a probe for unoccupied GFRalpha3 receptors. During the short incubation time of the quenching reaction, no re-equilibration between Neublastin and MOR02683 binding occurs. The amount of MOR02683 bound to GFRalpha3 was then quantified via FACS analysis using PE-Streptavidin as a secondary reagent.
Neublastin competition binding was used to measure Neublastin binding affinities to receptors on the cell surface. NB41A3-L3 cells were incubated with 0-10 uM rat Neublastin for 10 minutes at 4° C. Cells were then quenched with 10 ug/ml biotinylated MOR02683 for 2 minutes. The amount of MOR02683 bound to GFRalpha3 was quantified by FACS using PE-Streptavidin as a secondary reagent. […] A Neublastin concentration-dependent reduction in the subsequent binding of MOR02683 was observed, but not with the control antibody MOR02682 (FIG. 8).

[2] = target: murine GFRalpha3-Ig (murine); assay: inhibition of Neublastin-GFRalpha3-Ret ternary complex formation: MOR02683 preincubated with 1 ug/ml murine GFRalpha3-Ig, 50 ng/ml rat Neublastin and rat Ret-AP conditioned media; capture on an anti-human Fc plate; AP chemiluminescence
Experimental: MOR02683 was preincubated with 1 ug/ml murine GFRalpha3-Ig ([…] […] […] […] […] […] […] […] […] […] […] […]; SEQ ID NO:19) and 50 ng/ml rat Neublastin (113 amino acid form; […] […] TACGCLG; SEQ ID NO:20) in rat Ret-alkaline phosphatase ([…] […] […] […] […] […] […] […] […] […] […] […] […] […] […] […] […] […] […] […] […] […]; SEQ ID NO:21) conditioned media for an hour before being added to the coated plate for another hour. The alkaline phosphatase (AP) was visualized with a chemiluminescent substrate and the plate was read on a luminometer.

[3] = target: T2, rat GFRalpha2; assay: FACS on transiently transfected HEK 293 EBNA cells
Experimental: (§1) HEK 293 EBNA cells were transiently transfected with an empty vector, a vector encoding rat GFRalpha1, a vector encoding rat GFRalpha2, or a vector encoding rat GFRalpha3. These cells were stained with 10 ug/ml of the anti-GFRalpha3 polyclonal antibody R11 (a rabbit polyclonal antibody generated by immunization with the peptide […] (SEQ ID NO:14), which contains a murine GFRalpha3 sequence and a heterologous GC sequence at its carboxy terminus) or with 10 ug/ml MOR02683. The vector-transfected cells shifted slightly above the unstained baseline because the HEK 293 EBNA cells endogenously expresses GFRalpha3 (FIGS. 2A and 2B). […] The lack of shift of the GFRalpha1-transfected cells and GFRalpha2-transfected cells as compared to vector-transfected cells indicated the specificity of MOR02683 for GFRalpha3 over its close family members (FIGS. 2A and 2B).

[4] = target: T3, rat GFRalpha1; assay: FACS on transiently transfected HEK 293 EBNA cells
Experimental: as §1

[5] = target: T4, rat GFRalpha3; assay: FACS

| Binder | Kd [1] | EC50 [2] | binding result [3] | binding result [4] | binding result [5] |
| --- | --- | --- | --- | --- | --- |
| B1 | ~200 nM |  |  |  |  |
| B2 |  | ~0.25 µg/mL | no binding (tested: 10 ug/ml) | no binding (tested: 10 ug/ml) | binds |
